{
  "source": "patent US20260069728A1",
  "about": "“MULTI-TARGETING COMPOUND AND USE THEREOF” (Chengdu Shetai Medical Technology Co., Ltd., priority 2023, published 2026)",
  "key": {"[1]": {"test": "Stability of radioligands in PBS buffer (radio-HPLC)", "format": "physicochemical", "description": "The purpose of this experiment was to test the stability of the radioligands under buffer conditions simulating the physiological environment. This stability is a prerequisite for further animal experiments.\n(§1) 1. ^68Ga-SDYD01: ^68Ga-SDYD01 was added to PBS buffer (pH=7.4) and incubated at 37° C. The mixture samples were taken for radio-HPLC analysis after 0.5 hours, 1 hour, and 2 hours of incubation. The stability of ^68Ga-SDYD01 in PBS buffer: the radiochemical purities of ^68Ga-SDYD01 after incubation in PBS for 0.5 hours, 1 hour, and 2 hours were 98%, 97%, and 97%, respectively (FIG. 4).\n(§2) 2. ^177Lu-SDYD01: ^177Lu-SDYD01 was added to PBS buffer (pH=7.4) and incubated at 37° C. The mixture samples were taken for radio-HPLC analysis after 24 hours, 48 hours, and 120 hours of incubation. The stability of ^177Lu-SDYD01 in PBS buffer: the radiochemical purities of ^177Lu-SDYD01 after incubation in PBS for 24 hours, 48 hours, and 120 hours were 97%, 96%, and 94%, respectively (FIG. 5).\nas §1, with “^68Ga-SDYD02: ^68Ga-SDYD02” for “^68Ga-SDYD01: ^68Ga-SDYD01”, “^68Ga-SDYD02” for “^68Ga-SDYD01”, “96%, 95%” for “98%, 97%,”, “93%,” for “97%,”, “10).” for “4).”\nas §2, with “^177Lu-SDYD02: ^177Lu-SDYD02” for “^177Lu-SDYD01: ^177Lu-SDYD01”, “^177Lu-SDYD02” for “^177Lu-SDYD01”, “95%, 91%” for “97%, 96%,”, “87%,” for “94%,”, “11).” for “5).”\nas §1, with “1. ^68Ga-SDYD05: ^68Ga-SDYD05” for “1. ^68Ga-SDYD01: ^68Ga-SDYD01”, “of ^68Ga-SDYD05” for “of ^68Ga-SDYD01”, “98%, 96%” for “98%, 97%,”, “and 95%,” for “and 97%,”, “(FIG. 16).” for “(FIG. 4).”\nas §2, with “^177Lu-SDYD05: ^177Lu-SDYD05” for “^177Lu-SDYD01: ^177Lu-SDYD01”, “^177Lu-SDYD05” for “^177Lu-SDYD01”, “97%, 96% and” for “97%,”, “96%,” for “96%, and 94%,”, “17).” for “5).”\n1. ^68Ga-SDYD06: ^68Ga-SDYD06 was added to PBS buffer (pH=7.4) and incubated at 37° C. The mixture samples were taken for radio-HPLC analysis after 0.5, 1, and 2 hours of incubation. The stability of ^68Ga-SDYD06 in PBS buffer: the radiochemical purities of ^68Ga-SDYD06 after incubation in PBS for 0.5 hours, 1 hour, and 2 hours were 96%, 94% and 93%, respectively (FIG. 22).\n2. ^177Lu-SDYD06: ^177Lu-SDYD06 was added to PBS buffer (pH=7.4) and incubated at 37° C. The mixture samples were taken for radio-HPLC analysis after 24 hours, 48 hours, and 120 hours of incubation.\n1. ^68Ga-SDYD03: ^68Ga-SDYD03 was added to PBS buffer (pH=7.4) and incubated at 37° C. The mixture samples were taken for radio-HPLC analysis after 0.5 hours, 1 hour, and 2 hours of incubation. The stability of ^68Ga-SDYD03 PBS in PBS buffer: the radiochemical purities of ^68Ga-SDYD03 after incubation in PBS for 0.5 hours, 1 hour, and 2 hours were 96%, 96% and 95%, respectively (FIG. 27).\nas §2, with “^177Lu-SDYD03: ^177Lu-SDYD03” for “^177Lu-SDYD01: ^177Lu-SDYD01”, “^177Lu-SDYD03” for “^177Lu-SDYD01”, “are 99%, 96%” for “were 97%, 96%,”, “28). […]” for “5).”"}, "[2]": {"test": "Small animal PET imaging and biodistribution study", "format": "in vivo, NSG mice", "conditions": "NSG, mouse, in vivo, iv, 7.4 MBq, total radioactivity", "description": "(§3) Eleven NSG mice bearing subcutaneous xenograft tumors (U87 MG cells), with tumor sizes approximately 150 mm^3, were used. The mice were intravenously injected via the tail vein with approximately 7.4 MBq of ^68Ga-labeled SDYD01, SDYD02, SDYD03. SDYD04, SDYD05, SDYD06, SDYD07, SDYD08 or SDYD07-1 compounds, or with ^[…]-labeled FAPI-04 or FAP2286 compounds as tracers. Micro PET/CT imaging was performed at 30 min, 60 min, and 120 min post-injection. Static images were acquired in 3D mode for 20 minutes. Reconstruction was performed using the OSEM3D/MAP method to obtain attenuation-corrected PET/CT fusion images.\n(§4) NSG mice bearing subcutaneous xenograft tumors (U87 MG cells) were divided into 3 groups, with 11 mice in each group. They were intravenously injected via the tail vein with ^68Ga-labeled SDYD01, SDYD02, SDYD03. SDYD04, SDYD05, SDYD06. SDYD07, SDYD08, or SDYD07-1 compounds, or with ^68Ga-labeled FAPI-04 or FAP2286 compounds as tracers. Tumor-bearing mice injected with ^68Ga-labeled compounds SDYD01, SDYD02, SDYD03, SDYD04, SDYD05, SDYD06, FAPI-04, as well as 68Ga-labeled compounds FAPI-04 and FAP2286, were euthanized at 30 min. 60 min, and 120 min, respectively, for each group. Tumor-bearing mice injected with ^68Ga-labeled compounds SDYD07, SDYD08, and SDYD07-1 were euthanized at 30 min, 60 min, and 90 min, respectively, for each group. Blood, tumors, and other major organs and tissues were collected, weighed, and measured for radioactivity. After radioactive decay correction, the standardized uptake value (SUV) and percentage injected dose per gram of tissue (% ID/g) were calculated. In these figures, (a) represents the PET/CT imaging results, (b) represents the biodistribution results, and (c) represents the relative ratios of radioactive uptake in tumor versus normal tissues."}, "[3]": {"system": "subcutaneous xenograft tumors (U87 MG cells)", "test": "Small animal PET imaging and biodistribution study", "format": "in vivo, NSG mice", "description": "as §3, §4"}, "[4]": {"conditions": "absolute uptake value in the tumor"}},
  "note": "Read-outs that look alike come from different tables or passages of the source.",
  "data": [
    {"smiles": "CCCCCC(=O)N[C@@H]1CSCc2cc(CSCCNC(=O)[C@@H](CCCCNC(=O)CN3CCN(CC(=O)O)CCN(CC(=O)O)CCN(CC(=O)O)CC3)NC(=O)COCCOCCNC(=O)COCCOCCNC(=O)CCN3C(=O)CC(SCCNC(=O)CCC(=O)N[C@@H](CCCNC(=N)N)C(=O)N[C@@H](CCCNC(=N)N)C(=O)N[C@@H](Cc4ccc5ccccc5c4)C(=O)N[C@@H]4CSSC[C@@H](C(=O)N[C@@H](CCCNC(=N)N)C(N)=O)NC(=O)[C@H](CCCNC(N)=O)NC(=O)[C@H](CCCNC(=N)N)NC(=O)[C@H](Cc5ccc(O)cc5)NC(=O)[C@@H]5CCCN5C(=O)[C@H](CCCCN)NC(=O)[C@H](CCCCN)NC(=O)[C@H](CCCNC(N)=O)NC(=O)[C@H](Cc5ccc(O)cc5)NC4=O)C3=O)cc(c2)CSC[C@@H](C(=O)O)NC(=O)[C@H](Cc2ccccc2)NC(=O)[C@H](CCC(N)=O)NC(=O)C([C@@H](C)O)NC(=O)[C@@H]2CCCN2C(=O)[C@@H]2CCCN2C1=O", "note": "(single isomer, unassigned) [^68Ga-SDYD02, metal not drawn]", "values": [
      {"measurement": "stability in PBS buffer (in words)", "setting": "[1]", "value": "quite stable in PBS buffer"},
      {"measurement": "tissue uptake at 0.5 h", "setting": "[2]; [4]", "value": "≥ 10", "unit": "%ID/g"},
      {"measurement": "tissue uptake at 1 h", "setting": "[2]; [4]", "value": "≥ 10", "unit": "%ID/g"},
      {"measurement": "radioactive uptake in the tumor sites (in words)", "setting": "[3]; mouse, in vivo", "value": "significant radioactive uptake in the tumor sites"}
    ]},
    {"smiles": "CC(C)CC(CC(C)C)NC(=O)[C@H](Cc1cnc[nH]1)NC(=O)CNC(=O)C(NC(=O)[C@H](C)NC(=O)[C@H](Cc1c[nH]c2ccccc12)NC(=O)[C@H](CCC(N)=O)NC(=O)[C@@H](Cc1ccccc1)NC(=O)COCC(=O)Nc1ccc(CNC(=O)COCCOCCNC(=O)COCCOCCNC(=O)[C@H](CCCCNC(=O)CN2CCN(CC(=O)O)CCN(CC(=O)O)CCN(CC(=O)O)CC2)NC(=O)CCC(=O)N2CCN(CCCOc3ccc4nccc(C(=O)NCC(=O)N5CC(F)(F)C[C@H]5C#N)c4c3)CC2)cc1)C(C)C", "note": "(single isomer, unassigned) [^68Ga-SDYD03, metal not drawn]", "values": [
      {"measurement": "stability in PBS buffer (in words)", "setting": "[1]; PBS buffer pH=7.4, 37° C.", "value": "quite stable in PBS buffer"},
      {"measurement": "tissue uptake at 0.5 h", "setting": "[2]; 30 minutes post-injection, read-out: absolute uptake value in the tumor", "value": "≥ 10", "unit": "%ID/g"},
      {"measurement": "tissue uptake at 1 h", "setting": "[2]; 60 minutes post-injection, read-out: absolute uptake value in the tumor", "value": "≥ 10", "unit": "%ID/g"},
      {"measurement": "radioactive uptake in the tumor sites (in words)", "setting": "[3]; tail vein injection, U87 MG tumor-bearing NSG mice", "value": "significant radioactive uptake in the tumor sites"}
    ]},
    {"smiles": "CCCCCC(=O)N[C@@H]1CSCc2cc(CSCCNC(=O)COCCOCCNC(=O)COCCOCCNC(=O)CSC3CC(=O)N(CCC(=O)N[C@H](CCCCNC(=O)CN4CCN(CC(=O)O)CCN(CC(=O)O)CCN(CC(=O)O)CC4)C(=O)NCc4ccc(C(=O)NCCC[C@@H]5C(=O)N[C@@H](CCCNC(=N)N)C(=O)N[C@@H](Cc6ccc7ccccc7c6)C(=O)NCC(=O)N[C@H](Cc6ccc(O)cc6)C(=O)N5C)cc4)C3=O)cc(c2)CSC[C@@H](C(=O)O)NC(=O)[C@H](Cc2ccccc2)NC(=O)[C@H](CCC(N)=O)NC(=O)C([C@@H](C)O)NC(=O)[C@@H]2CCCN2C(=O)[C@@H]2CCCN2C1=O", "note": "(single isomer, unassigned) [^68Ga-SDYD06, metal not drawn]", "values": [
      {"measurement": "stability in PBS buffer (in words)", "setting": "[1]", "value": "quite stable in PBS buffer"},
      {"measurement": "tissue uptake at 0.5 h", "setting": "[2]; [4]", "value": "≥ 10", "unit": "%ID/g"},
      {"measurement": "tissue uptake at 1 h", "setting": "[2]; [4]", "value": "≥ 10", "unit": "%ID/g"},
      {"measurement": "radioactive uptake in the tumor sites (in words)", "setting": "[3]; mouse, in vivo", "value": "significant radioactive uptake in the tumor sites"}
    ]},
    {"smiles": "N#C[C@@H]1CC(F)(F)CN1C(=O)CNC(=O)c1ccnc2ccc(OCCCN3CCN(C(=O)[C@H](CCCCNC(=O)CCN4C(=O)CC(SCC(=O)NCCOCCOCCOCCOCCC(=O)NCCCC[C@@H]5NC(=O)[C@@H](Cc6ccc(O)cc6)NC(=O)[C@H](CC(=O)O)NC(=O)CNC(=O)[C@H](CCCNC(=N)N)NC5=O)C4=O)NC(=O)CCC(C(=O)O)N4CCN(CC(=O)O)CCN(CC(=O)O)CCN(CC(=O)O)CC4)CC3)cc12", "note": "(single isomer, unassigned) [^68Ga-SDYD07, metal not drawn]", "values": [
      {"measurement": "stability in PBS buffer (in words)", "setting": "[1]", "value": "quite stable in PBS buffer"},
      {"measurement": "tissue uptake at 0.5 h", "setting": "[2]; [4]", "value": "≥ 10", "unit": "%ID/g"},
      {"measurement": "tissue uptake at 1 h", "setting": "[2]; [4]", "value": "≥ 10", "unit": "%ID/g"},
      {"measurement": "tissue uptake at 2 h", "setting": "[2]; [4]", "value": "~10", "unit": "%ID/g"},
      {"measurement": "radioactive uptake in non-target organs (in words)", "setting": "[3]; mouse, in vivo", "value": "significantly reduced at 60 minutes"},
      {"measurement": "radioactive uptake in the tumor sites (in words)", "setting": "[3]; mouse, in vivo", "value": "significant radioactive uptake in the tumor sites"},
      {"measurement": "target/non-target ratios (in words)", "setting": "[3]; mouse, in vivo", "value": "significantly increased target/non-target ratios"},
      {"measurement": "tumor uptake and tumor retention time, comparison (in words)", "setting": "[3]; mouse, in vivo", "value": "higher tumor uptake and longer tumor retention time"}
    ]},
    {"smiles": "CCCCCC(=O)N[C@H]1CSCc2cc(CSCCNC(=O)[C@H](CCCCNC(=O)CCN3C(=O)CC(SCC(=O)NCCOCCOCCOCCOCCC(=O)NCCCC[C@@H]4NC(=O)[C@@H](Cc5ccc(O)cc5)NC(=O)[C@H](CC(=O)O)NC(=O)CNC(=O)[C@H](CCCNC(=N)N)NC4=O)C3=O)NC(=O)CCC(C(=O)O)N3CCN(CC(=O)O)CCN(CC(=O)O)CCN(CC(=O)O)CC3)cc(c2)CSC[C@@H](C(=O)O)NC(=O)[C@H](Cc2ccccc2)NC(=O)[C@H](CCC(N)=O)NC(=O)C([C@@H](C)O)NC(=O)[C@@H]2CCCN2C(=O)[C@@H]2CCCN2C1=O", "note": "(single isomer, unassigned) [^68Ga-SDYD08, metal not drawn]", "values": [
      {"measurement": "stability in PBS buffer (in words)", "setting": "[1]", "value": "quite stable in PBS buffer"},
      {"measurement": "tissue uptake at 0.5 h", "setting": "[2]; [4]", "value": "≥ 10", "unit": "%ID/g"},
      {"measurement": "tissue uptake at 1 h", "setting": "[2]; [4]", "value": "≥ 10", "unit": "%ID/g"},
      {"measurement": "radioactive uptake in the tumor sites (in words)", "setting": "[3]; mouse, in vivo", "value": "significant radioactive uptake in the tumor sites"}
    ]}
  ]
}
